Entries after “also recorded” stand apart in the source; their conditions may differ. Like-named read-outs stand apart in the source and are kept apart here.
How the values were obtained:
[1] = tested on: Anxa6^em1(GFP) myofibers; experiment: Laser injury of Anxa6em1(GFP) myofibers pretreated with recombinant annexin A6; type: cell-based, mouse; settings: 10-40 μg/ml recombinant protein pretreatment vs control
Description: Myofiber isolation. Flexor digitorum brevis (FDB) fibers were isolated with methods that were described previously in (Demonbreun and McNally, 2015; Demonbreun et al., 2016b; DiFranco et al., 2009). Briefly, fibers were dissociated in 0.2% BSA plus collagenase type II (Cat #17101, Thermo Fisher Scientific, Waltham, Mass.) for 60 minutes at 37 degrees in 10% CO2. Fibers were then moved to Ringers solution and placed on MatTek confocal microscopy dishes (Cat #P35G-1.5-14-C, MatTek, Ashland Mass.).
Multiphoton laser injury and imaging. Isolated fibers were subjected to laser-induced damage at room temperature using the Nikon A1R-MP multiphoton microscope. Imaging was performed using a 25×1.1 NA objective directed by the NIS-Elements AR imaging software. Green fluorescence protein (GFP) and FM 4-64 were excited using a 920 nm wavelength laser and emission wavelengths of 575 nm and 629 nm were collected respectively. […] Fluorescence intensity and cap area were measured using Fiji (NIH).
For recombinant protein studies, myofibers were isolated from mice as described above. […] Cap size was assessed from acquired images in FIJI. […] Images were acquired and quantitated as described above. FM 4-64 fluorescence at endpoint was measured using FIJI.

[2] = tested on: wildtype mice; experiment: Cardiotoxin injury, systemic retro-orbital recombinant annexin A6, Evan's blue dye uptake; type: in vivo, mouse; settings: vs vehicle; for decrease in Evan's blue dye uptake, fluorescence imaging of tibialis anterior: 1 mg/kg retro-orbital 2 hours before cardiotoxin, 3 hours post injury
Description: Cardiotoxin Injury and analysis. […] Additionally, mice were injected intraperitoneally with Evans' blue dye at 5 μl/g body weight (E-2129; Sigma-Aldrich, St. Louis, Mo.) dissolved in phosphate-buffered saline at 10 mg/mL. […] Cardiotoxin injury was performed injecting 20 μl of a 10 μM cardiotoxin (discontinued, Sigma-Aldrich) solution in PBS in tibialis muscles in sedated animals (3% isoflurane, 0.8 l/min O2) 2 hours post pretreatment. Cardiotoxin was released down the midline of the muscle to induce a homogenous area of injury at the center of the muscle. 3 hours post cardiotoxin injection muscle was harvested and frozen in liquid nitrogen.
(§1) Immunofluorescence microscopy. Sections (10 μm thick) from the center of frozen-embedded muscles were collected on the cryostat (chamber, −20° C.; sample, −15° C.; catalog number CM1950; Leica, Wetzlar, Germany) for immunostaining. Tissues were fixed with 4% paraformaldehyde for 10 minutes on ice. Block and permeabilization were with 0.1% Triton (catalog number X-100; Sigma-Aldrich), 10% fetal bovine serum, and PBS for 60 minutes. For dystrophin detection, anti-dystrophin (ab15277; Abcam, Cambridge, Mass.) was used at a dilution of 1:100 overnight at 4° C. Sections were PBS rinsed, incubated with secondary antibody goat anti rabbit (A11008, Invitrogen) for 1 hour, PBS rinsed, and mounted in vectashield with DAPI (H-1200, Vector Laboratories). Imaging was performed using a Zeiss Axio Observer A1 microscope (Zeiss, Oberkochen, Germany), using a 10× objective. ZEN software (Zeiss, Jena, Germany) was used for acquiring images. Fluorescence quantitation and muscle area were performed using FIJI (NIH). Surface plots were created in FIJI (NIH). Fluorescence volume was quantified using Imaris Software v9.1.2.
Cardiotoxin Injury and analysis. […] Additionally, mice were injected with Evans' blue dye at 5 μl/g body weight (E-2129; Sigma-Aldrich, St. Louis, Mo.) dissolved in phosphate-buffered saline at 10 mg/mL cardiotoxin injury was performed injecting 20 μl of a 10 μM cardiotoxin solution in PBS in tibialis anterior or gastroc/soleus muscles in sedated animals (3% isoflurane, 0.8 l/min O2) 2 hours post pretreatment. Cardiotoxin was released down the midline of the muscle to induce a homogenous area of injury at the center of the muscle. 3 hours post cardiotoxin injection muscle was harvested.
Evans blue dye uptake. Sections (10 μm thick) from the center of frozen-embedded muscles were collected on the cryostat (chamber, −20° C.; sample, −15° C.; catalog number CM1950; Leica, Wetzlar, Germany). Tissue sections were fixed with methanol for 2 minutes, rinsed and mounted with vectashield with DAPI (H-1200, Vector Laboratories). Imaging was performed using a Zeiss Axio Observer A1 microscope (Zeiss, Oberkochen, Germany), using a 10× objective. ZEN software (Zeiss, Jena, Germany) was used for acquiring images. Fluorescence quantitation, surface plots, and muscle area were performed using FIJI (NIH). For whole tissue dye quantification, whole tissue was dissected, finely minced, weighed, and incubated at 55° C. in 1 mL of formamide for 2 hours. Spectrophotometric absorbance was measured at 620 nm.

[3] = tested on: Sgcg-null mice; settings: 1 mg/kg, 5 injections over 48 hours, 60 minutes downhill running, vs BSA control
Description: Serum collection and CK analysis. Mice were sedated (3% isoflurane, 0.8 l/min O2) and blood was collected by means of retro-orbital puncture with heparinized capillary tubes (20-362-566; Fisher Scientific, Waltham, Mass.) into Microtainer™ Gold Top Serum Separator (365967 Becton Dickinson, Franklin Lakes, N.J.) and centrifuged at 8,000×g for 10 minutes. The plasma fractions were frozen and stored at −80° C. Serum creatine kinase (CK) was analyzed in duplicate for each mouse using the EnzyChrom Creatine Kinase Assay (ECPK-100; BioAssay Systems, Hayward, Calif.) following manufacturer's instructions as described (Demonbreun A R, Allen M V, Warner J L, Barefield D Y, Krishnan S, Swanson K E, et al. Enhanced Muscular Dystrophy from Loss of Dysferlin Is Accompanied by Impaired Annexin A6 Translocation after Sarcolemmal Disruption. Am J Pathol. 2016; 186(6):1610-22). Results were acquired with the Synergy HTX multi-mode plate reader (BioTek®, Winooski, Vt.).
Sgcg-null mice were sedated (3% isoflurane, 0.8 l/min O2) and pre-exercise blood was collected by means of left retro-orbital puncture as described above. While sedated, mice were then injected 1 mg/kg recombinant annexin A6 (5186-A6-050, R&D systems) or PBS+1 mg/kg BSA into the right retro-orbital cavity at 9 am and 5 μm for 5 consecutive injection over 48 hours. […] Serum creatine kinase (CK) was analyzed as described above. […]

[4] = tested on: mdx/hLTBP4 dystrophic muscle; experiment: Anti-HIS immunofluorescence localization after systemic injection, mdx/hLTBP4; type: in vivo, mouse; settings: 6 hours post systemic injection, vs PBS
Description: as §1
Immunofluorescence microscopy. Mice were systemically injected with recombinant annexin A6 with a C-terminal HIS tag (R&D). Muscle was harvested and flash frozen. […]

B1: recombinant annexin A6: recombinant human annexin A6 protein with C-terminal HIS tag (5186-A6-050, R&D systems); mouse protein from Northwestern core in one cohort (protein, UniProt P08133 2-673, looked up)
Annexin A6: AKPAQGAKYRGSIHDFPGFDPNQDAEALYTAMKGFGSDKEAILDIITSRSNRQRQEVCQSYKSLYGKDLIADLKYELTGKFERLIVGLMRPPAYCDAKEIKDAISGIGTDEKCLIEILASRTNEQMHQLVAAYKDAYERDLEADIIGDTSGHFQKMLVVLLQGTREEDDVVSEDLVQQDVQDLYEAGELKWGTDEAQFIYILGNRSKQHLRLVFDEYLKTTGKPIEASIRGELSGDFEKLMLAVVKCIRSTPEYFAERLFKAMKGLGTRDNTLIRIMVSRSELDMLDIREIFRTKYEKSLYSMIKNDTSGEYKKTLLKLSGGDDDAAGQFFPEAAQVAYQMWELSAVARVELKGTVRPANDFNPDADAKALRKAMKGLGTDEDTIIDIITHRSNVQRQQIRQTFKSHFGRDLMTDLKSEISGDLARLILGLMMPPAHYDAKQLKKAMEGAGTDEKALIEILATRTNAEIRAINEAYKEDYHKSLEDALSSDTSGHFRRILISLATGHREEGGENLDQAREDAQVAAEILEIADTPSGDKTSLETRFMTILCTRSYPHLRRVFQEFIKMTNYDVEHTIKKEMSGDVRDAFVAIVQSVKNKPLFFADKLYKSMKGAGTDEKTLTRIMVSRSEIDLLNIRREFIEKYDKSLHQAIEGDTSGDFLKALLALCGGED
modifications: C-terminal His tag
notes: recombinant human annexin A6 protein with C-terminal HIS tag (5186-A6-050, R&D systems); mouse protein from Northwestern core in one cohort
- FM 4-64 dye uptake [1]: reduction
- annexin A6GFP repair cap size [1]: smaller; also recorded: reduced
- decrease in Evan's blue dye uptake, fluorescence imaging of tibialis anterior [2]: 38%
- decrease in Evan's blue dye uptake, fluorescence imaging of tibialis anterior ([2]; listed as rANXA6): approximately 38%
- reduction in dye uptake, whole tissue spectroscopic analysis of gastrocnemius/soleus ([2]; 1 mg/kg retro-orbital pretreatment): 58%
- Evan's blue dye uptake, fluorescence imaging ([2]; retro-orbital post-treatment immediately after cardiotoxin): significant decrease
- Evan's blue dye uptake, fluorescence imaging ([2]; retro-orbital pretreatment 2 hours prior to cardiotoxin): significant decrease
- fold change in serum CK post/pre running [3]: reduced
- fold change in serum CK post/pre running ([3]; listed as rANXA6): significantly reduced
- anti-HIS staining at the sarcolemma / plasma membrane ([4]; listed as rANXA6): localized to the plasma membrane
- anti-HIS staining at the sarcolemma / plasma membrane ([4]; listed as recombinant annexin A6-HIS): presence of recombinant annexin A6-HIS at the sarcolemma
